Source: the Human Domainome abundance scans (Beltran et al. 2025)
± gives the uncertainty stated by the source.

B1: RUN and FYVE domain-containing protein 1, residues 639 to 698; numbered along this chain, Q96T51 (parent)
chain: WLKDDEATHCRQCEKEFSISRRKHHCRNCGHIFCNTCSSNELALPSYPKPVRVCDSCHTL

Variants of: B1
Experiment: abundance fitness (aPCA) (normalised: wild type 0, dead -1); higher = more abundant; growth selection in yeast, the domain comes from the species named
Settings: Homo sapiens

| Variant | abundance fitness |
| --- | --- |
| WLKDDEATHCRQCEKEFSISRRKHHCRNVGHIFCNTCSSNELALPSYPKPVRVCDSCHTL [C29V] | -0.904 ± 0.07 |
| WLKDDEATHCRQCEKEFSISRRKHHCRNMGHIFCNTCSSNELALPSYPKPVRVCDSCHTL [C29M] | -0.906 ± 0.094 |
| WLKDDEATHCRQCEKEFSISRRKHHCRNQGHIFCNTCSSNELALPSYPKPVRVCDSCHTL [C29Q] | -1.23 ± 0.18 |
| WLKDDEATHCRQCEKEFSISRRKHHCRNDGHIFCNTCSSNELALPSYPKPVRVCDSCHTL [C29D] | -0.709 ± 0.11 |
| WLKDDEATHCRQCEKEFSISRRKHHCRNNGHIFCNTCSSNELALPSYPKPVRVCDSCHTL [C29N] | -0.942 ± 0.16 |
| WLKDDEATHCRQCEKEFSISRRKHHCRNIGHIFCNTCSSNELALPSYPKPVRVCDSCHTL [C29I] | -1.11 ± 0.11 |
| WLKDDEATHCRQCEKEFSISRRKHHCRNLGHIFCNTCSSNELALPSYPKPVRVCDSCHTL [C29L] | -0.875 ± 0.08 |
| WLKDDEATHCRQCEKEFSISRRKHHCRNEGHIFCNTCSSNELALPSYPKPVRVCDSCHTL [C29E] | -0.666 ± 0.068 |
| WLKDDEATHCRQCEKEFSISRRKHHCRNYGHIFCNTCSSNELALPSYPKPVRVCDSCHTL [C29Y] | -0.852 ± 0.097 |
| WLKDDEATHCRQCEKEFSISRRKHHCVNCGHIFCNTCSSNELALPSYPKPVRVCDSCHTL [R27V] | -0.262 ± 0.038 |
| WLKDDEATHCRQCEKEFSISRRKHHCWNCGHIFCNTCSSNELALPSYPKPVRVCDSCHTL [R27W] | -0.144 ± 0.046 |
| WLKDDEATHCRQCEKEFSISRRKHHCRNCGMIFCNTCSSNELALPSYPKPVRVCDSCHTL [H31M] | -0.113 ± 0.047 |
| WLKDDEATHCRQCEKEFSISRRKHHCRNCGRIFCNTCSSNELALPSYPKPVRVCDSCHTL [H31R] | -0.142 ± 0.037 |
| WLKDDEATHCRQCEKEFSISRRKHHCRNCGEIFCNTCSSNELALPSYPKPVRVCDSCHTL [H31E] | -0.277 ± 0.07 |
| WLKDDEATHCRQCEKEFSISRRKHHCRNCGDIFCNTCSSNELALPSYPKPVRVCDSCHTL [H31D] | -0.126 ± 0.051 |
| WLKDDEATHCRQCEKEFSISRRKHHCRNCGAIFCNTCSSNELALPSYPKPVRVCDSCHTL [H31A] | -0.204 ± 0.046 |
| WLKDDEATHCRQCEKEFSISRRKHHCRNCGQIFCNTCSSNELALPSYPKPVRVCDSCHTL [H31Q] | -0.019 ± 0.056 |
| WLKDDEATHCRQCEKEFSISRRKHHCRNCGVIFCNTCSSNELALPSYPKPVRVCDSCHTL [H31V] | -0.626 ± 0.054 |
| WLKDDEATHCRQCEKEFSISRRKHHCRNCGTIFCNTCSSNELALPSYPKPVRVCDSCHTL [H31T] | -0.423 ± 0.076 |
| WLKDDEATHCRQCEKEFSISRRKHHCRNCGFIFCNTCSSNELALPSYPKPVRVCDSCHTL [H31F] | 0.027 ± 0.069 |
| WLKDDEATHCRQCEKEFSISRRKHHCRNCGNIFCNTCSSNELALPSYPKPVRVCDSCHTL [H31N] | -0.237 ± 0.063 |
| WLKDDEATHCRQCEKEFSISRRKHHCRNCGPIFCNTCSSNELALPSYPKPVRVCDSCHTL [H31P] | -0.711 ± 0.076 |
| WLKDDEATHCRQCEKEFSISRRKHHCRNCGCIFCNTCSSNELALPSYPKPVRVCDSCHTL [H31C] | -0.445 ± 0.095 |

| Variant | abundance fitness |
| --- | --- |
| WLKDDEATHCRQCEKEFSISRRKHHCRNCGGIFCNTCSSNELALPSYPKPVRVCDSCHTL [H31G] | 0.08 ± 0.037 |
| WLKDDEATHCRQCEKEFSISRRKHHCRNCGWIFCNTCSSNELALPSYPKPVRVCDSCHTL [H31W] | -0.017 ± 0.047 |
| WLKDDEATHCRQCEKEFSISRRKHHCRNCGYIFCNTCSSNELALPSYPKPVRVCDSCHTL [H31Y] | -0.106 ± 0.062 |
| WLKDDEATHCRQCEKEFSISRRKHHCRNCGLIFCNTCSSNELALPSYPKPVRVCDSCHTL [H31L] | -0.012 ± 0.035 |
| WLKDDEATHCRQCEKEFSISRRKHHCRNCGKIFCNTCSSNELALPSYPKPVRVCDSCHTL [H31K] | -0.143 ± 0.062 |
| WLKDDEATHCRQCEKEFSISRRKHHCRNCGSIFCNTCSSNELALPSYPKPVRVCDSCHTL [H31S] | -0.225 ± 0.039 |
| WLKDDEATHCRQCEKEFSISRRKHHCRNCGIIFCNTCSSNELALPSYPKPVRVCDSCHTL [H31I] | -0.113 ± 0.059 |
| WLKDDEATHCRQCEKEFSISRRKHHCRNCGHDFCNTCSSNELALPSYPKPVRVCDSCHTL [I32D] | -0.079 ± 0.13 |
| WLKDDEATHCRQCEKEFSISRRKHHCRNCGHCFCNTCSSNELALPSYPKPVRVCDSCHTL [I32C] | -0.105 ± 0.059 |
| WLKDDEATHCRQCEKEFSISRRKHHCRNCGHAFCNTCSSNELALPSYPKPVRVCDSCHTL [I32A] | -0.1 ± 0.14 |
| WLKDDEATHCRQCEKEFSISRRKHHCRNCGHTFCNTCSSNELALPSYPKPVRVCDSCHTL [I32T] | 0.007 ± 0.065 |
| WLKDDEATHCRQCEKEFSISRRKHHCRNCGHHFCNTCSSNELALPSYPKPVRVCDSCHTL [I32H] | -0.24 ± 0.18 |
| WLKDDEATHCRQCEKEFSISRRKHHCRNCGHKFCNTCSSNELALPSYPKPVRVCDSCHTL [I32K] | 0.134 ± 0.048 |
| WLKDDEATHCRQCEKEFSISRRKHHCRNCGHFFCNTCSSNELALPSYPKPVRVCDSCHTL [I32F] | 0.042 ± 0.067 |
| WLKDDEATHCRQCEKEFSISRRKHHCRNCGHSFCNTCSSNELALPSYPKPVRVCDSCHTL [I32S] | 0.013 ± 0.043 |
| WLKDDEATHCRQCEKEFSISRRKHHCRNCGHQFCNTCSSNELALPSYPKPVRVCDSCHTL [I32Q] | 0.045 ± 0.045 |
| WLKDDEATHCRQCEKEFSISRRKHHCRNCGHEFCNTCSSNELALPSYPKPVRVCDSCHTL [I32E] | 0.074 ± 0.088 |
| WLKDDEATHCRQCEKEFSISRRKHHCRNCGHMFCNTCSSNELALPSYPKPVRVCDSCHTL [I32M] | 0.161 ± 0.045 |
| WLKDDEATHCRQCEKEFSISRRKHHCRNCGHLFCNTCSSNELALPSYPKPVRVCDSCHTL [I32L] | -0.056 ± 0.036 |
| WLKDDEATHCRQCEKEFSISRRKHHCRNCGHNFCNTCSSNELALPSYPKPVRVCDSCHTL [I32N] | -0.05 ± 0.1 |
| WLKDDEATHCRQCEKEFSISRRKHHCRNCGHGFCNTCSSNELALPSYPKPVRVCDSCHTL [I32G] | 0.195 ± 0.04 |
| WLKDDEATHCRQCEKEFSISRRKHHCRNCGHPFCNTCSSNELALPSYPKPVRVCDSCHTL [I32P] | 0.109 ± 0.053 |
